Data as given in the supplement of paper PMC10567573.

B1: TRIM55 (parent)
chain: YKSFSKEQQTMDNLEKQLICPICL
B2: TRIM55 (parent)
chain: ICPICLEMFTKPVVILPCQHNLCR

Variants of: B1
Test: protein stability index of a GFP-peptide fusion (GPS, HEK-293T) (PSI 1-6); higher = more stable
Details: c terminus: a fixed tail appended
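Also: lentivirally expressed fusions sorted by FACS into six bins by GFP to DsRed ratio, PSI derived from sequencing read proportions per bin multiplied by bin number.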

Protein stability index of substitutions, site by site:
Q9: R 2.5, M 2.17, G 2.39, C 2.15, E 2.08, D 2.8, N 2.22, F 1.79, W 1.67, P 2.16, V 1.76, A 2.25, T 1.57, L 1.87, S 1.75, H 1.98, K 2.15, I 1.79, Y 2.7
K16: V 1.76, F 2.14, A 1.8, G 2.08, H 2.89, I 1.42, T 2.23, R 2.03, S 1.81, Q 1.83, M 2.15, P 2.57, N 2.07, E 1.68, Y 1.67, W 1.88, L 1.68, D 2.33, C 1.82
C20: D 2.51, M 1.82, P 2.86, S 2.4, R 2.11, T 2.44, H 2.27, N 2.42, A 1.54, Y 2.03, K 1.88, G 2.52, F 2.22, L 2.29, Q 2.05, E 3.21, I 1.62, V 1.78, W 1.85
E7: N 2.18, P 2.27, R 1.87, W 1.83, M 2.37, Y 1.72, T 1.96, V 1.6, Q 1.67, S 1.67
P21: Y 3.21, N 1.24, A 1.66, V 2.08, W 2.53, R 1.35, T 1.77, D 1.07, K 2.07, L 1.67, F 1.74, G 2.21, S 3.16, Q 2.4
Q8: E 2.3, V 2.09, S 2.29, L 1.75, G 2.83, K 1.8, M 1.96, R 1.72, Y 2, T 2.17, D 2.07, C 1.96, F 1.54, W 1.66, P 2, I 2.1, A 2.65, H 2.37, N 2.18
M11: E 2.69, K 2.54, T 2.12, F 2.24, G 2.22, P 2.66, V 2.68, S 2.29, Q 2.69, D 2.68, H 1.82, L 2.3, C 2.47, A 2.74, R 2.77, N 3.68, I 1.83, W 1.55, Y 2.1
I22: A 2.23, S 2.75, M 2.31, V 1.96, L 2.18, F 2.21, T 2.55, E 2.93, C 2.66, D 2.78, G 2.9, Q 2.03, H 2.15, N 3.48, K 2.9, P 2.7, R 3.81, Y 2.55
L18: E 3.19, M 2.62, V 3.42, A 2.81, P 2.87, R 3.17, N 2.96, S 2.49, C 3.72, I 2.31, Y 2.18, T 2.54, W 1.95, Q 2.08, K 2.48, G 2.84, H 2.75, F 2.55, D 2.98
T10: W 1.77, D 2.08, I 1.65, H 2.03, S 2.46, R 2.03, E 2.33, N 2.26, Y 1.92, F 1.29, P 2.53, A 1.74, M 1.9, C 2.82, G 2.27, L 2.18, K 2.54, V 2.04, Q 2.31
L14: C 2.51, V 2.23, H 2.13, W 2.81, P 2.7, E 3.2, S 2.8, M 2.53, Y 1.98, F 1.88, I 2.06, T 3.03, R 2.58, A 3.03, G 2.6, Q 3.27, D 2.53, N 2.73, K 2.58
D12: V 1.89, I 1.93, S 1.93, N 2.37, H 1.93, T 2.42, K 2.98, Y 2.57, M 2.26, W 2.11, C 2.17, L 2.14, Q 2.1, F 2.68, R 1.93, G 2.56, A 2.04, E 2.59, P 2.43
Q17: K 2.32, V 2.01, L 2, E 2.32, H 2.23, W 2.31, N 1.89, A 1.79, Y 2.02, C 2.12, G 2.16, P 1.68, R 2.22, I 1.65, T 1.98, S 1.72, D 2.76, F 2.59, M 1.48
C23: S 2.6, T 2, F 2.04, V 1.7, R 2.37, Y 2.04, W 1.65, I 1.93, D 3.64, N 3.15, G 2.67, Q 3.13, E 2.85, H 2.19, L 1.72, A 2.29, P 1.86, M 1.66, K 3.13
N13: I 1.77, A 1.57, Y 1.83, F 2.34, V 1.68, T 2.81, M 1.69, E 1.87, R 1.79, Q 2.53, C 2.02, W 2.05, P 2.03, H 1.95, S 1.91, K 2.09, G 2.35, L 2.82, D 2.77
L24: T 1.98, G 2.46, S 2.13, K 2.63, I 2.7, R 2.31, N 2.46, D 2, M 2.33, P 3.03, A 1.92, C 2.07, H 2.5, Y 2.88, W 2.37, Q 2.22, E 2.13, F 2.15
E15: C 2.72, A 2.79, Q 2.58, N 2.33, D 2.13, P 2.51, K 2.09, W 1.45, V 1.27, M 2.55, T 2.9, R 2.12, L 1.05, S 1.79, G 2.41, F 2.1, H 2.27
I19: W 1.51, V 2.06, K 2.55, R 2.63, G 2.8, S 2.37, N 2.71, D 2.56, A 1.99, E 3.01, T 2.76, H 2.25, Q 2.81, P 2.29, F 2.09, M 1.88, L 1.96, Y 2.02

Variants of: B2
Test: as above
Details: c terminus: a fixed tail appended

Protein stability index, by site and new letter:
I1: L 2.72, C 2.36, E 2.85, N 2.55, H 2.62, M 2.44, G 2.46, F 2.58, K 2.75, D 2.75, A 2.56
